In patent publication US20150165065A1 (AVIDBIOTICS, published 2015):
Residue numbers refer to the chain shown, from its start. In names and notes the source's numbering stands.

T1: biotinylated human NKG2D (human, UniProt P26718 78-216, limits assumed, biotinylated (site not stated))
T1 construct: Surface-coated in biolayer interferometry (Octet); also called recombinant biotinylated NKG2D
T1 sequence (looked up): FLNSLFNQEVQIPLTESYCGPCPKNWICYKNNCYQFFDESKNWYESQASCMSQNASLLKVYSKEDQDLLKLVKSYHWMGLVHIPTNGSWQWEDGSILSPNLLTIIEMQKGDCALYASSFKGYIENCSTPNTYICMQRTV

T2: human NKG2D-Fc (human, UniProt P26718 78-216, limits assumed)
T2 construct: construct not described; also called human NKG2D-Fc reagent; not shown: Fc part
T2 sequence (looked up): T1 sequence (looked up)

T3: mouse NKG2D-Fc (mouse, UniProt O54709 94-232, limits assumed)
T3 construct: Construct not described; also called murine NKG2D-Fc; murine NKG2D; not shown: Fc part
T3 sequence (looked up): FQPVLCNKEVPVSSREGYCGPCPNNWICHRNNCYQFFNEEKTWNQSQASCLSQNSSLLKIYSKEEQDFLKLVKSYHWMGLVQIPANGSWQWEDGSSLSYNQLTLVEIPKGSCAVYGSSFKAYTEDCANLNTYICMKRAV

B1: M13 phage pKK91 displaying MICA α3 domain with loop 3 insert His10sp (designed binder)
chain: TVPPMVNVTRSEASEGNITVTCRASGFYPWNITLSWRQDGVSLSHDTQQWGDVLPDGNGTYQTWVATRISGGSGGGSHHHHHHHHHHSGGSGGGCYMEHSGNHSTHPVPSGK
notes: also called 3-His10; not shown: C-terminal portion of M13 gene III protein, fused at codon position 198
B2: M13 phage pKK109 displaying MICA α3 domain with tight loop 1 insert T-3.3 (designed binder, not shown: large carriers)
chain: TVPPMVNRVPRGDSDLTCRASGFYPWNITLSWRQDGVSLSHDTQQWGDVLPDGNGTYQTWVATRICQGEEQRFTCYMEHSGNHSTHPVPSGK
B3: WT α1-α2 domain soluble MICA protein (competitor and analyte) (ligand)
chain: EPHSLRYNLTVLSWDGSVQSGFLTEVHLDGQPFLRCDRQKCRAKPQGQWAEDVLGNKTWDRETRDLTGNGKDLRMTLAHIKDQKEGLHSLQEIRVCEIHEDNSTRSSQHFYYDGELFLSQNLETKEWTMPQSSRAQTLAMNVRNFLKEDAMKTKTHYHAMHADCLQELRRYLKSGVVLRRTVPPMVQVTRSEASGGSGDRVTITCRASQDVSTAVAWYQQKPGKAPKLLIYSASFLYSGVPSRFSGSGSGTDFTLTISSLQPEDFATYYCQQSYTTPPTFGQGTKVEIKGGSSRSSSSGGGGSGGGGEVQLVESGGGLVQPGGSLRLSCAASGFTFTSTGISWVRQAPGKGLEWVGRIYPTNGSTNYADSVKGRFTISADTSKNTAYLQMNSLRAEDTAVYYCARTYGIYDLYVDYTEYVMDYWGQGTLVTVSSGGSSRSSSSGGGGSGGGGDIQMTQSPSSLSASGGSGQITVTCRASGFYPWNITLSWRQDGVSLSHDTQQWGDVLPDGQGTYQTWVATRISQGEEQRFTCYMEHSGQHSTHPVPSGKGSHHHHHH
notes: also called wild-type (WT); WT MICA
B4: WED-MICA (WED-α1-α2 domain; N69W, K152E, K154D) (designed binder)
chain: B3 chain with N69W, K152E, K154D
notes: Whole entry as named
B5: α1-α2 variant 15 (designed binder)
chain: B3 chain with N69W, K125N, K152E, K154D, H161R
notes: His-tagged protein from insect cells, modified α1-α2 domain with an attached polypeptide
B6: α1-α2 variant 17 (designed binder)
chain: B3 chain with G68L, N69W, K125L, K152E, K154D, H161R
notes: as for B5
B7: α1-α2 variant 18 (designed binder)
chain: B3 chain with S20P, G68L, N69W, K125L, K152E, K154D, H161R
notes: as for B5
B8: α1-α2 variant 16 (designed binder)
chain: B3 chain with N69W, K125L, K152E, K154D, H161R
notes: as for B5
B9: M13 phage pKK112 displaying MICA α3 domain with tight loop 1 insert T-AMY (loop 1 from tendamistat) (designed binder, not shown: large carriers)
chain: TVPPMVNYQSWRYSQCRASGFYPWNITLSWRQDGVSLSHDTQQWGDVLPDGNGTYQTWVATRICQGEEQRFTCYMEHSGNHSTHPVPSGK
B10: M13 phage pKK100 displaying MICA α3 domain with loop 1 insert 3.2sp (designed binder, not shown: large carriers)
chain: TVPPMVNVTSGGSGGGSTSRGDHPRTQSGGSGGGVTCRASGFYPWNITLSWRQDGVSLSHDTQQWGDVLPDGNGTYQTWVATRICQGEEQRFTCYMEHSGNHSTHPVPSGK
B11: M13 phage pKK95 displaying MICA α3 domain with loop 1 insert 3.4 (designed binder, not shown: large carriers)
chain: TVPPMVNVTRSARGDSDHRVTCRASGFYPWNITLSWRQDGVSLSHDTQQWGDVLPDGNGTYQTWVATRICQGEEQRFTCYMEHSGNHSTHPVPSGK
B12: soluble MICA generated from pKK35 (loop 3 insert His10sp) (designed binder)
chain: EPHSLRYNLTVLSWDGSVQSGFLTEVHLDGQPFLRCDRQKCRAKPQGQWAEDVLGNKTWDRETRDLTGNGKDLRMTLAHIKDQKEGLHSLQEIRVCEIHEDNSTRSSQHFYYDGELFLSQNLETKEWTMPQSSRAQTLAMNVRNFLKEDAMKTKTHYHAMHADCLQELRRYLKSGVVLRRTVPPMVNVTRSEASEGNITVTCRASGFYPWNITLSWRQDGVSLSHDTQQWGDVLPDGNGTYQTWVATRISGGSGGGSHHHHHHHHHHSGGSGGGCYMEHSGNHSTHPVPSGK

Experiments:
integrin αVβ5 [1] = biological target: T4, integrin αVβ5 (UniProt P06756 31-992; P18084 24-719); experiment: phage ELISA, coated integrin, anti-M13-HRP
T4 construct: Coated on the ELISA plate
T4 sequence (P06756 31-992, chain 1 of 2): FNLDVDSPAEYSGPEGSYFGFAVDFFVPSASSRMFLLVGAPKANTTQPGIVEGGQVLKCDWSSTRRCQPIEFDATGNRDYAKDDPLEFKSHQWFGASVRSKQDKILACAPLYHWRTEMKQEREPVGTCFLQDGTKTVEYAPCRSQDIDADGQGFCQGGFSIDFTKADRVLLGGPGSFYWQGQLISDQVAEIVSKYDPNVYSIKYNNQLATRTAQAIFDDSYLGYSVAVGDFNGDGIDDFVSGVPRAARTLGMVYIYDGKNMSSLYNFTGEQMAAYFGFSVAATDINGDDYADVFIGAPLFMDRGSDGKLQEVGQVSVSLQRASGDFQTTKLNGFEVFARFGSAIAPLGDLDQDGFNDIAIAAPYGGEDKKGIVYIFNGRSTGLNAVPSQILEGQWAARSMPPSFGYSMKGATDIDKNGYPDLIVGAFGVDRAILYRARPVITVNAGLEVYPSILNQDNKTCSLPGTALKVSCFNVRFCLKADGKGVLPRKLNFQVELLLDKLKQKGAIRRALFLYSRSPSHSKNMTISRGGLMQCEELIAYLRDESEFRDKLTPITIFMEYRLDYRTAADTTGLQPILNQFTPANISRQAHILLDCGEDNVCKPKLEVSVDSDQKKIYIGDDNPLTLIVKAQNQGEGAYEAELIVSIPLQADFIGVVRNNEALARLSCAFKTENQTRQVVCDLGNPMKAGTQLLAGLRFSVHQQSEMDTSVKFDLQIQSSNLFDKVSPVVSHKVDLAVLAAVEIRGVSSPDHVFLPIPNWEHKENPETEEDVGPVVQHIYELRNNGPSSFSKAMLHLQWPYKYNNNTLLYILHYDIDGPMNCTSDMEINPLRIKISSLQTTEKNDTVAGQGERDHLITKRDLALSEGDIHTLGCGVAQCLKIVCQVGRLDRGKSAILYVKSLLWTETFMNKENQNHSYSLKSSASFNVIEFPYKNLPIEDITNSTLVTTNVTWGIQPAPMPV
T4 sequence (P18084 24-719, chain 2 of 2): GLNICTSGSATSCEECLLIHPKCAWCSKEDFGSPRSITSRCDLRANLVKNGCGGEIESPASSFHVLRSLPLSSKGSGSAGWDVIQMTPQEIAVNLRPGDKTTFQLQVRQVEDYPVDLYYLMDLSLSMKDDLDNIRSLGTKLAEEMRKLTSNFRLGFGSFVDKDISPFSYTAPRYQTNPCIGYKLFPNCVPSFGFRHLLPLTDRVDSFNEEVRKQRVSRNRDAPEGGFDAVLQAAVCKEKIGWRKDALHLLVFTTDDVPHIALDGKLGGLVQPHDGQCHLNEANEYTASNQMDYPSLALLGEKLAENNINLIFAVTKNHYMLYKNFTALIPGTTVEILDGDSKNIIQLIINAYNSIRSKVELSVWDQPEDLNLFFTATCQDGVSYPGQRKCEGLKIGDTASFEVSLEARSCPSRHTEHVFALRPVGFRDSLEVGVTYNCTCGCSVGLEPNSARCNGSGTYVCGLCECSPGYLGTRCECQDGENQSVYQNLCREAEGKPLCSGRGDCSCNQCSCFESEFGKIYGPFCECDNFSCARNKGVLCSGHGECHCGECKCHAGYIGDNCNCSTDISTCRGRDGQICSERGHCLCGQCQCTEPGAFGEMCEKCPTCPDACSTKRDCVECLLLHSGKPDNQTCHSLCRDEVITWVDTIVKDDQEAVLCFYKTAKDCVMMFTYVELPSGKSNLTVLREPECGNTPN
Procedure: The phage vectors were independently transformed into NEBαF′tet competent E. coli cells. Phages produced by the transformed cells were tittered and their concentrations adjusted by dilution to 10¹³ per ml. The ability of the soluble MICA molecules in each of the phage preparations was assayed by an ELISA using the intended target proteins, integrin αVβ3 or αVβ5, as capture agents on the ELISA plate. After the respective integrins were adhered to the bottoms of the wells of the ELISA plate, the wells were washed and blocked, as well known in the field. Each sample (100 μl) of phage preparation was added to wells containing αVβ3 or αVβ5, incubated and washed. The phages captured by the integrins were detected by HRP-conjugated antibody to the M13 phage coat developed with Ultra TMB-ELISA substrate and the optical densities read.

integrin αVβ3 [2] = biological target: T5, integrin αVβ3 (UniProt P06756 31-992; P05106 27-718); experiment: phage ELISA, coated integrin, anti-M13-HRP
T5 construct: Coated on the ELISA plate
T5 sequence (P06756 31-992, chain 1 of 2): as the sequence (P06756 31-992, chain 1 of 2) above
T5 sequence (P05106 27-718, chain 2 of 2): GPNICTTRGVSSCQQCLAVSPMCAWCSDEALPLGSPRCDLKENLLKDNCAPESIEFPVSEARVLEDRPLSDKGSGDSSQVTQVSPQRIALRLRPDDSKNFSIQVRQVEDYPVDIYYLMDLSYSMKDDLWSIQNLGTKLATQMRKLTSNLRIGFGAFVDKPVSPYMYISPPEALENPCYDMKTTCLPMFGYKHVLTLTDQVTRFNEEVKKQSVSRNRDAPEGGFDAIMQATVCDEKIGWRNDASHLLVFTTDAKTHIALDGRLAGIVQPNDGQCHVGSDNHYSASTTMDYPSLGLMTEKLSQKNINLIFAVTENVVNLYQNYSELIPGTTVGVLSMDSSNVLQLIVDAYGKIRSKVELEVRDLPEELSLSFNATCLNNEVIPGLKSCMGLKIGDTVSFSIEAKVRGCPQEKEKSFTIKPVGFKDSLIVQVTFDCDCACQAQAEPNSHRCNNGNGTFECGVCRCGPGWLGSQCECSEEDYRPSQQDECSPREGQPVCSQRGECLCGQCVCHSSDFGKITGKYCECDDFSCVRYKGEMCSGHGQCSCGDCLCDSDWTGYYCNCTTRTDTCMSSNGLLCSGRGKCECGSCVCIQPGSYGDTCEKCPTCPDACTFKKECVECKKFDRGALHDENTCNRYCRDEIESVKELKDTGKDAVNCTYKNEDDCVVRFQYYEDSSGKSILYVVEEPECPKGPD

integrin αVβ5 [3] = biological target: T4, integrin αVβ5; experiment: phage ELISA, coated integrin, anti-M13-HRP; remark: listed apart in the source
biotinylated human NKG2D [4] = biological target: T1, biotinylated human NKG2D; experiment: BLI (Octet), coated biotinylated human NKG2D, 100 nM analyte
biotinylated human NKG2D [5] = biological target: T1, biotinylated human NKG2D; experiment: BLI (Octet), Kd = kOFF/kON
human NKG2D-Fc [6] = biological target: T2, human NKG2D-Fc; experiment: competition ELISA, 2 nM human NKG2D-Fc on coated WT sMICA
Text: (§1) As for the NKG2D ligands (NKG2DLs) in the above example, we attached polypeptides directly to each of these 4 modified α1-α2 NKG2DLs using a linker peptide. The 4 His-tagged proteins (SEQ ID NOs.: 131-134) were expressed in insect cells and purified to characterize their NKG2D binding affinities and kinetic binding parameters. Using a competitive binding ELISA, we determined the relative NKG2D binding affinities of the 4 modified α1-α2 variants.

human NKG2D-Fc [7] = biological target: T2, human NKG2D-Fc; experiment: competition ELISA, human NKG2D-Fc on coated WT sMICA
Text: as §1

biotinylated human NKG2D [8] = biological target: T1, biotinylated human NKG2D; experiment: BLI (Octet)
[9] = biological target: NKG2D receptor on NKL effector cells (human) (UniProt P26718); experiment: cell-based or functional assay
mouse NKG2D-Fc = biological target: T3, mouse NKG2D-Fc; experiment: competition ELISA: titrated soluble protein inhibits binding of mouse NKG2D-Fc to plate-coated MICA [panel B]
Text: as §1

integrin αVβ3 [10] = biological target: T5, integrin αVβ3; experiment: ELISA, coated integrin, anti-MICA-HRP
integrin αVβ5 [11] = biological target: T4, integrin αVβ5; experiment: ELISA, coated integrin, anti-MICA-HRP

Binder	αvβ3 signal (integrin αVβ3 [2]) [OD]	αvβ5 signal (integrin αVβ5 [3]) [OD]	koff (biotinylated human NKG2D [4]) [s⁻¹]	kon (biotinylated human NKG2D [4]) [M⁻¹ s⁻¹]	Kd (biotinylated human NKG2D [5]) [nM]	IC50 (human NKG2D-Fc [6]) [nM]	fold better binding than WT NKG2DL (IC50) (human NKG2D-Fc [7]) [fold]	also measured
B1	0.303							αvβ5 signal (integrin αVβ5 [1]): 0.078 OD
B2	0.23	0.167						
B3			0.0018	130000	13.8	19.4		
B4						4.4		apparent koff (pooled screen) (biotinylated human NKG2D [4]): 0.0017 s⁻¹; apparent kon (pooled screen) (biotinylated human NKG2D [4]): 290000 M⁻¹ s⁻¹; apparent Kd (pooled screen) (biotinylated human NKG2D [5]): 5.9 nM
B5			0.00011	70000	1.5	1.7	11	
B6			7e-05	200000	0.4	0.6	32	fold affinity increase relative to WT α1-α2 (biotinylated human NKG2D [8]): ~30 fold; fold reduction in the off-rate relative to WT (biotinylated human NKG2D [8]): 18 fold; NK-mediated lysis of FGFR3-expressing P815 cells (calcein release) [9]: 15 fold; IC50 (read off the curve) (mouse NKG2D-Fc): ~1 nM
B7			9e-05	230000	0.4	0.5	38	fold affinity increase relative to WT α1-α2 (biotinylated human NKG2D [8]): ~30 fold; fold reduction in the off-rate relative to WT (biotinylated human NKG2D [8]): 18 fold; NK-mediated lysis of FGFR3-expressing P815 cells (calcein release) [9]: 15 fold; IC50 (read off the curve) (mouse NKG2D-Fc): ~1 nM
B8			9e-05	200000	0.5	0.7	27	fold affinity increase relative to WT α1-α2 (biotinylated human NKG2D [8]): ~30 fold; fold reduction in the off-rate relative to WT (biotinylated human NKG2D [8]): 18 fold; NK-mediated lysis of FGFR3-expressing P815 cells (calcein release) [9]: 15 fold
B9	0.46	0.515						
B10	0.201	0.186						
B11	0.345	0.232						
B12								αvβ3 signal (integrin αVβ3 [10]): 0.419 OD; αvβ3 signal/ng (signal/ng MICA) (integrin αVβ3 [10]): 2.46; αvβ5 signal (integrin αVβ5 [11]): 0.392 OD; αvβ5 signal/ng (signal/ng MICA) (integrin αVβ5 [11]): 2.31
